Assay results: US20180155451A1 (published 2018)

B1: GpH7-B3 variant I332_14T/GpL16-k0 (antibody, human IgG1, kappa)
heavy: not shown
light: DIVMTQSPLSLPVTPGEPASISCQASESLVHSNRNTYLHWYLQKPGQSPQLLIYKVSNRFSGVPDRFSGSGSGTDFTLKISRVEAEDVGVYYCSQNTHVPPTFGQGTKVEIERTVAAPSVFIFPPSDEQLKSGTASVVCLLNNFYPREAKVQWKVDNALQSGNSQESVTEQDSKDSTYSLSSTLTLSKADYEKHKVYACEVTHQGLSSPVTKSFNRGEC
notes: homodimerized IgG1, mutation in both H chains; also called Ho Ab
B2: GpH7-B3 variant I332_15Y/GpL16-k0 (antibody, human IgG1, kappa)
heavy: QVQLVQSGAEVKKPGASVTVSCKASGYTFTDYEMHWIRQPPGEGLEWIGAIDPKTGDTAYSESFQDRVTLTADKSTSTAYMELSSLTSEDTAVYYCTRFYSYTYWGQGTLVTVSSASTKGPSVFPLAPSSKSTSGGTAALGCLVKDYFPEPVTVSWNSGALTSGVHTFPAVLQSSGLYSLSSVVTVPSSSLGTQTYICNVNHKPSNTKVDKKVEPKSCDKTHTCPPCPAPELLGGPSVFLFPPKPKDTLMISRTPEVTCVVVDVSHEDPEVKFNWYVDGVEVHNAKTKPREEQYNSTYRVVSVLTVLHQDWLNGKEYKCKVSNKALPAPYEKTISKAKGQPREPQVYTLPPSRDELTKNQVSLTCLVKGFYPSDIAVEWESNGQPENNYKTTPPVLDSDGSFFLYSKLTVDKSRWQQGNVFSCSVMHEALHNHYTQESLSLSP
light: DIVMTQSPLSLPVTPGEPASISCQASESLVHSNRNTYLHWYLQKPGQSPQLLIYKVSNRFSGVPDRFSGSGSGTDFTLKISRVEAEDVGVYYCSQNTHVPPTFGQGTKVEIERTVAAPSVFIFPPSDEQLKSGTASVVCLLNNFYPREAKVQWKVDNALQSGNSQESVTEQDSKDSTYSLSSTLTLSKADYEKHKVYACEVTHQGLSSPVTKSFNRGEC
notes: as for B1
B3: GpH7-B3 variant I332_19Q/GpL16-k0 (antibody, human IgG1, kappa)
heavy: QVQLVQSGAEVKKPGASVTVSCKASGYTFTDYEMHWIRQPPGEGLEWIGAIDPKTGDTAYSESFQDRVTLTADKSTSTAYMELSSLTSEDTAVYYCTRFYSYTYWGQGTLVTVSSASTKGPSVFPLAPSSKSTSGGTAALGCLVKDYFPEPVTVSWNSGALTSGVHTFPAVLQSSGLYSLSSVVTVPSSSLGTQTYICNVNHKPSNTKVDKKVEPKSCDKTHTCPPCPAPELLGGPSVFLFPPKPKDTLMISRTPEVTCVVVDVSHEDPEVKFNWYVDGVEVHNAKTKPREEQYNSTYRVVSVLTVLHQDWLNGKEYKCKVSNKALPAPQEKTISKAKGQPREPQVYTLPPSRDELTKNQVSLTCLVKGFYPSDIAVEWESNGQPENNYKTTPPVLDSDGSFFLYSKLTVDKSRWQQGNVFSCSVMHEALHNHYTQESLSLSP
light: DIVMTQSPLSLPVTPGEPASISCQASESLVHSNRNTYLHWYLQKPGQSPQLLIYKVSNRFSGVPDRFSGSGSGTDFTLKISRVEAEDVGVYYCSQNTHVPPTFGQGTKVEIERTVAAPSVFIFPPSDEQLKSGTASVVCLLNNFYPREAKVQWKVDNALQSGNSQESVTEQDSKDSTYSLSSTLTLSKADYEKHKVYACEVTHQGLSSPVTKSFNRGEC
notes: as for B1
B4: GpH7-B3 variant I336_02A/GpL16-k0 (antibody, human IgG1, kappa)
heavy: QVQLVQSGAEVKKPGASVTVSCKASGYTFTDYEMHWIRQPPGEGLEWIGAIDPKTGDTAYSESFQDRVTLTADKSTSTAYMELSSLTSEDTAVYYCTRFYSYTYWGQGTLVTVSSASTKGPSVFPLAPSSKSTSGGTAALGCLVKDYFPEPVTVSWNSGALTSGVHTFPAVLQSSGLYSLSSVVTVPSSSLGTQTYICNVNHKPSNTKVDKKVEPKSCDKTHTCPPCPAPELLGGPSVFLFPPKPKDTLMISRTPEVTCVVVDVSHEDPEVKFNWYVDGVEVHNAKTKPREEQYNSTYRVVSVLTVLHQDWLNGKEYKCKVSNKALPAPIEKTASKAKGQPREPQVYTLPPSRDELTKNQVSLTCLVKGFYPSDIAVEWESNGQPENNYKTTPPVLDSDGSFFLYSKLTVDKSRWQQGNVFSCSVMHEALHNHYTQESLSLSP
light: DIVMTQSPLSLPVTPGEPASISCQASESLVHSNRNTYLHWYLQKPGQSPQLLIYKVSNRFSGVPDRFSGSGSGTDFTLKISRVEAEDVGVYYCSQNTHVPPTFGQGTKVEIERTVAAPSVFIFPPSDEQLKSGTASVVCLLNNFYPREAKVQWKVDNALQSGNSQESVTEQDSKDSTYSLSSTLTLSKADYEKHKVYACEVTHQGLSSPVTKSFNRGEC
notes: as for B1
B5: GpH7-B3 variant I336_03V/GpL16-k0 (antibody, human IgG1, kappa)
heavy: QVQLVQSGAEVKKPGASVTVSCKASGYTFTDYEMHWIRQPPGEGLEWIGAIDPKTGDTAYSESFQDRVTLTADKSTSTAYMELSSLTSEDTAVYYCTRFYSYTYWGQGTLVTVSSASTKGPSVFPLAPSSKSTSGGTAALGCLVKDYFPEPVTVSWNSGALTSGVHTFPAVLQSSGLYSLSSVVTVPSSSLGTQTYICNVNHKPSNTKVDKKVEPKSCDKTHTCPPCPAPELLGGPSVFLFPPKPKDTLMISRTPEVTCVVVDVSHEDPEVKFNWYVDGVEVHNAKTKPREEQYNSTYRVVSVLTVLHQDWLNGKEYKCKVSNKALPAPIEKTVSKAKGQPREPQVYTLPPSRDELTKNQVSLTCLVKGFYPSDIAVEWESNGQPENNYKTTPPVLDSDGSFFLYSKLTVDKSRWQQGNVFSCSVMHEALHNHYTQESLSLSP
light: DIVMTQSPLSLPVTPGEPASISCQASESLVHSNRNTYLHWYLQKPGQSPQLLIYKVSNRFSGVPDRFSGSGSGTDFTLKISRVEAEDVGVYYCSQNTHVPPTFGQGTKVEIERTVAAPSVFIFPPSDEQLKSGTASVVCLLNNFYPREAKVQWKVDNALQSGNSQESVTEQDSKDSTYSLSSTLTLSKADYEKHKVYACEVTHQGLSSPVTKSFNRGEC
notes: as for B1
B6: GpH7-B3 variant I336_06M/GpL16-k0 (antibody, human IgG1, kappa)
heavy: not shown
light: DIVMTQSPLSLPVTPGEPASISCQASESLVHSNRNTYLHWYLQKPGQSPQLLIYKVSNRFSGVPDRFSGSGSGTDFTLKISRVEAEDVGVYYCSQNTHVPPTFGQGTKVEIERTVAAPSVFIFPPSDEQLKSGTASVVCLLNNFYPREAKVQWKVDNALQSGNSQESVTEQDSKDSTYSLSSTLTLSKADYEKHKVYACEVTHQGLSSPVTKSFNRGEC
notes: as for B1
B7: GpH7-B3 variant I336_09D/GpL16-k0 (antibody, human IgG1, kappa)
heavy: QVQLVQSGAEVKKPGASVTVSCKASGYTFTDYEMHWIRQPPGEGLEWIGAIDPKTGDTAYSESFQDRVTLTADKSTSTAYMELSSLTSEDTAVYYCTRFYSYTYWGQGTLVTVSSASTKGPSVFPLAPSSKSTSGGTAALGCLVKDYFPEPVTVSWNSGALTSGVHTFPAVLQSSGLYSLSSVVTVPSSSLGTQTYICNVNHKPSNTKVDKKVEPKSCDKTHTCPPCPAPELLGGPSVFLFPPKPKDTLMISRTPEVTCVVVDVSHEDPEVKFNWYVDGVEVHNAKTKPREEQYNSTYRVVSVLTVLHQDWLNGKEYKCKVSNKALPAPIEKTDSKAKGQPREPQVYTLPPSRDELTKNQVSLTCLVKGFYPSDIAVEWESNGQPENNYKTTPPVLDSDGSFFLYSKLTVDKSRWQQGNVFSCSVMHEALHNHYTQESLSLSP
light: DIVMTQSPLSLPVTPGEPASISCQASESLVHSNRNTYLHWYLQKPGQSPQLLIYKVSNRFSGVPDRFSGSGSGTDFTLKISRVEAEDVGVYYCSQNTHVPPTFGQGTKVEIERTVAAPSVFIFPPSDEQLKSGTASVVCLLNNFYPREAKVQWKVDNALQSGNSQESVTEQDSKDSTYSLSSTLTLSKADYEKHKVYACEVTHQGLSSPVTKSFNRGEC
notes: as for B1
B8: GpH7-B3 variant I336_10E/GpL16-k0 (antibody, human IgG1, kappa)
heavy: not shown
light: DIVMTQSPLSLPVTPGEPASISCQASESLVHSNRNTYLHWYLQKPGQSPQLLIYKVSNRFSGVPDRFSGSGSGTDFTLKISRVEAEDVGVYYCSQNTHVPPTFGQGTKVEIERTVAAPSVFIFPPSDEQLKSGTASVVCLLNNFYPREAKVQWKVDNALQSGNSQESVTEQDSKDSTYSLSSTLTLSKADYEKHKVYACEVTHQGLSSPVTKSFNRGEC
notes: as for B1
B9: GpH7-B3 variant I336_13S/GpL16-k0 (antibody, human IgG1, kappa)
heavy: not shown
light: DIVMTQSPLSLPVTPGEPASISCQASESLVHSNRNTYLHWYLQKPGQSPQLLIYKVSNRFSGVPDRFSGSGSGTDFTLKISRVEAEDVGVYYCSQNTHVPPTFGQGTKVEIERTVAAPSVFIFPPSDEQLKSGTASVVCLLNNFYPREAKVQWKVDNALQSGNSQESVTEQDSKDSTYSLSSTLTLSKADYEKHKVYACEVTHQGLSSPVTKSFNRGEC
notes: as for B1
B10: GpH7-B3 variant I336_14T/GpL16-k0 (antibody, human IgG1, kappa)
heavy: not shown
light: DIVMTQSPLSLPVTPGEPASISCQASESLVHSNRNTYLHWYLQKPGQSPQLLIYKVSNRFSGVPDRFSGSGSGTDFTLKISRVEAEDVGVYYCSQNTHVPPTFGQGTKVEIERTVAAPSVFIFPPSDEQLKSGTASVVCLLNNFYPREAKVQWKVDNALQSGNSQESVTEQDSKDSTYSLSSTLTLSKADYEKHKVYACEVTHQGLSSPVTKSFNRGEC
notes: as for B1
B11: GpH7-B3 variant I336_18N/GpL16-k0 (antibody, human IgG1, kappa)
heavy: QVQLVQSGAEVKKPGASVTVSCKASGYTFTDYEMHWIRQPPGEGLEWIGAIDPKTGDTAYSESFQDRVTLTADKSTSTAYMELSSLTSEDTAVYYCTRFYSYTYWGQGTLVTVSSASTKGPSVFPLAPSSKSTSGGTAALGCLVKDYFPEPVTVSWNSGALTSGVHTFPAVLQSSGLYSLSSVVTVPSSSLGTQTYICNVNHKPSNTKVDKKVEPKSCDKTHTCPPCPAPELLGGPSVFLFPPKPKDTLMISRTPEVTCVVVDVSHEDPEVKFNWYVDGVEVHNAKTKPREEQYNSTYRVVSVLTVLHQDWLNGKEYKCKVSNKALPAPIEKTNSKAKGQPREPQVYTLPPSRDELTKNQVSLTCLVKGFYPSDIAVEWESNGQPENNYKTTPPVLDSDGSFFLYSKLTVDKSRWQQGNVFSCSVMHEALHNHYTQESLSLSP
light: DIVMTQSPLSLPVTPGEPASISCQASESLVHSNRNTYLHWYLQKPGQSPQLLIYKVSNRFSGVPDRFSGSGSGTDFTLKISRVEAEDVGVYYCSQNTHVPPTFGQGTKVEIERTVAAPSVFIFPPSDEQLKSGTASVVCLLNNFYPREAKVQWKVDNALQSGNSQESVTEQDSKDSTYSLSSTLTLSKADYEKHKVYACEVTHQGLSSPVTKSFNRGEC
notes: as for B1
B12: GpH7-B3 variant K326_03V/GpL16-k0 (antibody, human IgG1, kappa)
heavy: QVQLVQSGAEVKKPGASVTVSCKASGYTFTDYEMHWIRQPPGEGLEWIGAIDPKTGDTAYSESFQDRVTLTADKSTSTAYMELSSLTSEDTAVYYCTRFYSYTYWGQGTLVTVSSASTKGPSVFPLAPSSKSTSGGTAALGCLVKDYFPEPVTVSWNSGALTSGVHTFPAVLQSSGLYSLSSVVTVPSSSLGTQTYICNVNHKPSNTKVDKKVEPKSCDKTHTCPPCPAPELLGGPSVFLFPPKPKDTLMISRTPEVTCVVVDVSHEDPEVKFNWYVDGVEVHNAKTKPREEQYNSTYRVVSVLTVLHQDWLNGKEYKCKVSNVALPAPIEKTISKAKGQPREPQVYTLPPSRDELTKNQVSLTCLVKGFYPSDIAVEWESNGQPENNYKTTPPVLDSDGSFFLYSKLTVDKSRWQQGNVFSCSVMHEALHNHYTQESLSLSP
light: DIVMTQSPLSLPVTPGEPASISCQASESLVHSNRNTYLHWYLQKPGQSPQLLIYKVSNRFSGVPDRFSGSGSGTDFTLKISRVEAEDVGVYYCSQNTHVPPTFGQGTKVEIERTVAAPSVFIFPPSDEQLKSGTASVVCLLNNFYPREAKVQWKVDNALQSGNSQESVTEQDSKDSTYSLSSTLTLSKADYEKHKVYACEVTHQGLSSPVTKSFNRGEC
notes: as for B1
B13: GpH7-B3 variant K326_04F/GpL16-k0 (antibody, human IgG1, kappa)
heavy: not shown
light: DIVMTQSPLSLPVTPGEPASISCQASESLVHSNRNTYLHWYLQKPGQSPQLLIYKVSNRFSGVPDRFSGSGSGTDFTLKISRVEAEDVGVYYCSQNTHVPPTFGQGTKVEIERTVAAPSVFIFPPSDEQLKSGTASVVCLLNNFYPREAKVQWKVDNALQSGNSQESVTEQDSKDSTYSLSSTLTLSKADYEKHKVYACEVTHQGLSSPVTKSFNRGEC
notes: as for B1
B14: GpH7-B3 variant K326_06M/GpL16-k0 (antibody, human IgG1, kappa)
heavy: not shown
light: DIVMTQSPLSLPVTPGEPASISCQASESLVHSNRNTYLHWYLQKPGQSPQLLIYKVSNRFSGVPDRFSGSGSGTDFTLKISRVEAEDVGVYYCSQNTHVPPTFGQGTKVEIERTVAAPSVFIFPPSDEQLKSGTASVVCLLNNFYPREAKVQWKVDNALQSGNSQESVTEQDSKDSTYSLSSTLTLSKADYEKHKVYACEVTHQGLSSPVTKSFNRGEC
notes: as for B1
B15: GpH7-B3 variant K326_07I/GpL16-k0 (antibody, human IgG1, kappa)
heavy: not shown
light: DIVMTQSPLSLPVTPGEPASISCQASESLVHSNRNTYLHWYLQKPGQSPQLLIYKVSNRFSGVPDRFSGSGSGTDFTLKISRVEAEDVGVYYCSQNTHVPPTFGQGTKVEIERTVAAPSVFIFPPSDEQLKSGTASVVCLLNNFYPREAKVQWKVDNALQSGNSQESVTEQDSKDSTYSLSSTLTLSKADYEKHKVYACEVTHQGLSSPVTKSFNRGEC
notes: as for B1
B16: GpH7-B3 variant K326_08L/GpL16-k0 (antibody, human IgG1, kappa)
heavy: not shown
light: DIVMTQSPLSLPVTPGEPASISCQASESLVHSNRNTYLHWYLQKPGQSPQLLIYKVSNRFSGVPDRFSGSGSGTDFTLKISRVEAEDVGVYYCSQNTHVPPTFGQGTKVEIERTVAAPSVFIFPPSDEQLKSGTASVVCLLNNFYPREAKVQWKVDNALQSGNSQESVTEQDSKDSTYSLSSTLTLSKADYEKHKVYACEVTHQGLSSPVTKSFNRGEC
notes: as for B1
B17: GpH7-B3 variant K326_09D/GpL16-k0 (antibody, human IgG1, kappa)
heavy: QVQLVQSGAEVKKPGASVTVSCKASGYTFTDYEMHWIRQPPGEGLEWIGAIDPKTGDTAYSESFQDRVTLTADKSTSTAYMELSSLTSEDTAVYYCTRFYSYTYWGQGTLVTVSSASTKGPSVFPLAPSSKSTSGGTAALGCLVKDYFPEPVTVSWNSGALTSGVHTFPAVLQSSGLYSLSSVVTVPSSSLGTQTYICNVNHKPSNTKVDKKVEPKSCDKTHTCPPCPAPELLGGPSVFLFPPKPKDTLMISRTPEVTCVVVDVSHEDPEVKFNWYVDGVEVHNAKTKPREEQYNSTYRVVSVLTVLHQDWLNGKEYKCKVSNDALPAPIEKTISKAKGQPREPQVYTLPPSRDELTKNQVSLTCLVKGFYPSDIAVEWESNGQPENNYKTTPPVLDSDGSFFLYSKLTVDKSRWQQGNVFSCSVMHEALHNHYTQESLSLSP
light: DIVMTQSPLSLPVTPGEPASISCQASESLVHSNRNTYLHWYLQKPGQSPQLLIYKVSNRFSGVPDRFSGSGSGTDFTLKISRVEAEDVGVYYCSQNTHVPPTFGQGTKVEIERTVAAPSVFIFPPSDEQLKSGTASVVCLLNNFYPREAKVQWKVDNALQSGNSQESVTEQDSKDSTYSLSSTLTLSKADYEKHKVYACEVTHQGLSSPVTKSFNRGEC
notes: as for B1
B18: GpH7-B3 variant K326_10E/GpL16-k0 (antibody, human IgG1, kappa)
heavy: not shown
light: DIVMTQSPLSLPVTPGEPASISCQASESLVHSNRNTYLHWYLQKPGQSPQLLIYKVSNRFSGVPDRFSGSGSGTDFTLKISRVEAEDVGVYYCSQNTHVPPTFGQGTKVEIERTVAAPSVFIFPPSDEQLKSGTASVVCLLNNFYPREAKVQWKVDNALQSGNSQESVTEQDSKDSTYSLSSTLTLSKADYEKHKVYACEVTHQGLSSPVTKSFNRGEC
notes: as for B1
B19: GpH7-B3 variant K326_14T/GpL16-k0 (antibody, human IgG1, kappa)
heavy: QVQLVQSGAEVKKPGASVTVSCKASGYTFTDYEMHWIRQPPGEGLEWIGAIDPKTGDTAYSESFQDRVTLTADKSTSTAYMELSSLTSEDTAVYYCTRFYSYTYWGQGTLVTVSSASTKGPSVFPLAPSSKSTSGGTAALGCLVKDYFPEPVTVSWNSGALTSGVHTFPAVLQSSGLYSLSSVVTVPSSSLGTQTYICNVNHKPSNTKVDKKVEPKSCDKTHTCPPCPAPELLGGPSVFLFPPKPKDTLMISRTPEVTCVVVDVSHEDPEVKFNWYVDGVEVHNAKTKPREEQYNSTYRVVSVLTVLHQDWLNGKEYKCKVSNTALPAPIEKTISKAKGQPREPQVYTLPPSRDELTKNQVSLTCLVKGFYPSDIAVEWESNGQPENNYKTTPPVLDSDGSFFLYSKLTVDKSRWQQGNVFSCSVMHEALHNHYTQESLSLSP
light: DIVMTQSPLSLPVTPGEPASISCQASESLVHSNRNTYLHWYLQKPGQSPQLLIYKVSNRFSGVPDRFSGSGSGTDFTLKISRVEAEDVGVYYCSQNTHVPPTFGQGTKVEIERTVAAPSVFIFPPSDEQLKSGTASVVCLLNNFYPREAKVQWKVDNALQSGNSQESVTEQDSKDSTYSLSSTLTLSKADYEKHKVYACEVTHQGLSSPVTKSFNRGEC
notes: as for B1
B20: GpH7-B3 variant K326_15Y/GpL16-k0 (antibody, human IgG1, kappa)
heavy: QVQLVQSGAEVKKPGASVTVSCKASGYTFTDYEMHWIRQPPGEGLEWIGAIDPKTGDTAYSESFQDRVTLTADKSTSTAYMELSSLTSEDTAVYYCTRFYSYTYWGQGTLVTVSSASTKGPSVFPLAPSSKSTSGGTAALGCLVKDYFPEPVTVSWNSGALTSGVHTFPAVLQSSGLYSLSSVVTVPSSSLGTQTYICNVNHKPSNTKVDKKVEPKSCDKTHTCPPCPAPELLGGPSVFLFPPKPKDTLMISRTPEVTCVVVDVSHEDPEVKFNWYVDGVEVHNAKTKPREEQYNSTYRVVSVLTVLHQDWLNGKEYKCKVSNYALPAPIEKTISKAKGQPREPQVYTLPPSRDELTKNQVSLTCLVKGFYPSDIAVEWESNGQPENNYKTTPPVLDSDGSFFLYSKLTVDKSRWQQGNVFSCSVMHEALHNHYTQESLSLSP
light: DIVMTQSPLSLPVTPGEPASISCQASESLVHSNRNTYLHWYLQKPGQSPQLLIYKVSNRFSGVPDRFSGSGSGTDFTLKISRVEAEDVGVYYCSQNTHVPPTFGQGTKVEIERTVAAPSVFIFPPSDEQLKSGTASVVCLLNNFYPREAKVQWKVDNALQSGNSQESVTEQDSKDSTYSLSSTLTLSKADYEKHKVYACEVTHQGLSSPVTKSFNRGEC
notes: as for B1
B21: GpH7-B3 variant K326_19Q/GpL16-k0 (antibody, human IgG1, kappa)
heavy: not shown
light: DIVMTQSPLSLPVTPGEPASISCQASESLVHSNRNTYLHWYLQKPGQSPQLLIYKVSNRFSGVPDRFSGSGSGTDFTLKISRVEAEDVGVYYCSQNTHVPPTFGQGTKVEIERTVAAPSVFIFPPSDEQLKSGTASVVCLLNNFYPREAKVQWKVDNALQSGNSQESVTEQDSKDSTYSLSSTLTLSKADYEKHKVYACEVTHQGLSSPVTKSFNRGEC
notes: as for B1
B22: GpH7-B3 variant K334_02A/GpL16-k0 (antibody, human IgG1, kappa)
heavy: not shown
light: DIVMTQSPLSLPVTPGEPASISCQASESLVHSNRNTYLHWYLQKPGQSPQLLIYKVSNRFSGVPDRFSGSGSGTDFTLKISRVEAEDVGVYYCSQNTHVPPTFGQGTKVEIERTVAAPSVFIFPPSDEQLKSGTASVVCLLNNFYPREAKVQWKVDNALQSGNSQESVTEQDSKDSTYSLSSTLTLSKADYEKHKVYACEVTHQGLSSPVTKSFNRGEC
notes: as for B1

Target: T1, FcγRIIIa extracellular domain with C-terminal His tag (human, UniProt P08637 17-208)
T1 construct: extracellular domain; also called FcgRIIIa; 3a
T1 sequence (P08637 17-208): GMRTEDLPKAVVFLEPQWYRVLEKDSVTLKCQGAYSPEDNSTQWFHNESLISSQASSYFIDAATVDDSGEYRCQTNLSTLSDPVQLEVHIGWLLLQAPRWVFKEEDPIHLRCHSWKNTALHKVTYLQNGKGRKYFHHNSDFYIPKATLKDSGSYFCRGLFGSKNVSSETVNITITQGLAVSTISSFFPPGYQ
Assay: SPR, relative to GpH7-B3/GpL16-k0

| Binder | Ho/Con_3a |
| --- | --- |
| B1 | 138 % of control (=100) |
| B2 | 106 % of control (=100) |
| B3 | 118 % of control (=100) |
| B4 | 104 % of control (=100) |
| B5 | 110 % of control (=100) |
| B6 | 107 % of control (=100) |
| B7 | 111 % of control (=100) |
| B8 | 130 % of control (=100) |
| B9 | 119 % of control (=100) |
| B10 | 123 % of control (=100) |
| B11 | 101 % of control (=100) |
| B12 | 137 % of control (=100) |
| B13 | 103 % of control (=100) |
| B14 | 129 % of control (=100) |
| B15 | 134 % of control (=100) |
| B16 | 114 % of control (=100) |
| B17 | 163 % of control (=100) |
| B18 | 157 % of control (=100) |
| B19 | 147 % of control (=100) |
| B20 | 115 % of control (=100) |
| B21 | 118 % of control (=100) |
| B22 | 154 % of control (=100) |
